Test results taken from article PMC12449476, “Transient ligand contacts of the intrinsically disordered N-terminus of neuropeptide Y2 receptor regulate arrestin-3 recruitment” (Nature Communications, 2025).
Where “and” joins values, the source holds several entries; their conditions need not be identical. Identical values can stand only once. Values belong to the substance of their own block, whether it stands above or below them.

Legend:
[1] = target: Δ2–41 variant or charge reversal in the acidic patches (Nluc-Y2R-eYFP variants, ligand dissociation); assay: FRET or BRET; NanoBRET ligand dissociation from the low-affinity state: membranes pre-incubated with 300 nM K18-Tamra-NPY for 10 min, re-binding blocked by 50 µM JNJ-31020028, BRET decay for 20 min, one-phase dissociation fit
[2] = target: Nluc-Y2R-eYFP D42A-S43A-T44A (human) (UniProt P49146); assay: FRET or BRET; NanoBRET equilibrium binding: dilution series of K18-Tamra-NPY on HEK293 membranes with Nluc-Y2R-eYFP variants, HBSS, 20 mM HEPES pH 7.4, 0.1% BSA, 10 min at room temperature; unspecific binding with 100 µM JNJ-31020028; biphasic fit (high- and low-affinity state)
Nluc-Y2R-eYFP D42A-S43A-T44A (human), sequence (P49146 whole entry D42A/S43A/T44A): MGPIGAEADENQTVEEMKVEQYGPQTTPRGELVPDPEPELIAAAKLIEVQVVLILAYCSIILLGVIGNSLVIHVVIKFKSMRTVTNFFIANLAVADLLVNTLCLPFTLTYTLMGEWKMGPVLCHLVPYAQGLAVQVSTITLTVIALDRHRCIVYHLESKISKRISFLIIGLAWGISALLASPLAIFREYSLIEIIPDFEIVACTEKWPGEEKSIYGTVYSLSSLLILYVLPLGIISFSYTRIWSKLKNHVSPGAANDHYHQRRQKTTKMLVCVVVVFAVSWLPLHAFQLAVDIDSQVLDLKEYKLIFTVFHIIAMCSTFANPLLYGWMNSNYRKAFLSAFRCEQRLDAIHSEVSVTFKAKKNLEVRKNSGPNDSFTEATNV

[3] = target: Nluc-Y2R-eYFP Δ2–41 (human) (UniProt P49146); assay: as above
Nluc-Y2R-eYFP Δ2–41 (human), sequence (P49146 other isoform, or with tags, fused parts or gaps): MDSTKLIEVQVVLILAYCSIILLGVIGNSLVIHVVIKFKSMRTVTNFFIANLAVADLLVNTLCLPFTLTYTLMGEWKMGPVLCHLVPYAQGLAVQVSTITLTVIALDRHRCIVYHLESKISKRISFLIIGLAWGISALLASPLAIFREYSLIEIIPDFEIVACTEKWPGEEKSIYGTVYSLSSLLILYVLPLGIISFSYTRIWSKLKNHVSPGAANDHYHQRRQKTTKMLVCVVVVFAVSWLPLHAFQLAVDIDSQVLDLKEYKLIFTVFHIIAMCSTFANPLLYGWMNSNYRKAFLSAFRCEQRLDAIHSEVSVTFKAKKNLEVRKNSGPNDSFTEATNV

[4] = target: Neuropeptide Y (Homo sapiens) (UniProt P01303); settings: cited from earlier work
[5] = target: Y2R-eYFP D35–E39K (human) (UniProt P49146); assay: FRET or BRET; BRET between Nluc-arrestin-3 and Y2R-eYFP variants in live HEK293 cells, concentration-response to NPY, read 10 min after stimulation at 37 °C
Y2R-eYFP D35–E39K (human), sequence (P49146 whole entry E39K): as the sequence (P49146 whole entry D42A/S43A/T44A) above, with E39K, A42D, A43S, A44T counted along it

[6] = target: Tetramethylrhodamine-NPY (Tamra-NPY) (porcine); assay: fluorescence polarisation; fixed 50 nM Tamra-NPY, titrated with Y2R-loaded bicelles (x axis: log c, bicelles / M); empty bicelles as control

Neuropeptide Y receptor type 2, sequence (P49146 whole entry): as the sequence (P49146 whole entry D42A/S43A/T44A) above, with A42D, A43S, A44T counted along it
lipid-reconstituted cysteine-deficient Y2R (Y2R-Δ6), sequence (P49146 whole entry, stated change not applied): as the sequence (P49146 whole entry D42A/S43A/T44A) above, with A42D, A43S, A44T counted along it

fold increase of ligand dissociation (koff) against wild-type Y2R [1]: 2 fold and 3 fold | fold reduction of the affinity of the low-affinity state against wild-type Y2R [2]: 3 fold | fold reduction of the low-affinity binding constant against wild-type Y2R [3]: 2 fold
Substance: K18-Tamra-NPY (peptide)

Substance: Neuropeptide Y receptor type 2 (from UniProt P49146)
Kd [4]: 300 nM

BRETmax [5]: 49%
Substance: Nluc-arrestin-3 (from UniProt P32121 1-409) (natural protein)

Kd [6]: 44.5 nM
Substance: lipid-reconstituted cysteine-deficient Y2R (Y2R-Δ6) (from UniProt P49146 1-381) (receptor)
